From patent US20250352661A1 (MYTHIC THERAPEUTICS, published 2025) come the findings set out here.

Substitutions are numbered along the chain they refer to. Names may count otherwise.

Assay [1] has as its target T1, Human LRRC15 Protein, His Tag (Acro Biosystems) (human, UniProt Q8TF66 22-538, limits assumed).
T1 construct: Bought protein with His tag
T1 sequence (looked up): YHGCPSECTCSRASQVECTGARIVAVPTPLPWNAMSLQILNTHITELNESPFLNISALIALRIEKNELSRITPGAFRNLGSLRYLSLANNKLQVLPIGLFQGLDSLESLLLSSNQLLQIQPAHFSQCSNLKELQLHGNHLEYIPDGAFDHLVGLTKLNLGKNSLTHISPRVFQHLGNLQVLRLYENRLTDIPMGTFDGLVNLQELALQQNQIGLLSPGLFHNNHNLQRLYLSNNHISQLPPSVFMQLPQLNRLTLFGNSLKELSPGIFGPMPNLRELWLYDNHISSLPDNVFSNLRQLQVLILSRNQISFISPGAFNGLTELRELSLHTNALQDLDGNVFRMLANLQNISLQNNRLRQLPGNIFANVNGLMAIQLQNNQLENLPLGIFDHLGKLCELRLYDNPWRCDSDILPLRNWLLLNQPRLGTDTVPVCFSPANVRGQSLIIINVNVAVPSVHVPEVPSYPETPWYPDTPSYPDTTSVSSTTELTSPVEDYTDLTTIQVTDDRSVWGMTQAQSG
Nature of the assay: BLI; dissociation pH 7.4 black, pH 5.4 grey [1/2); D00013 FIG. 2B (1/2]. Background: Biolayer interferometry detects binding as a change in optical thickness at a sensor tip.

Assay [2] concerns the target T2, Human LRRC15 Protein, His Tag (Acro Biosystems) (human, UniProt Q8TF66 22-538, limits assumed).
T2 construct: not shown: His tag
T2 sequence (looked up): T1 sequence (looked up)
Nature of the assay: BLI; dissociation pH 7.4 black, pH 5.4 grey [D00016 FIG. 3B].

B1: MYT5742 (antibody, V domains shown)
VH: QQQLVESGGGLVKPGASLTLTCKASGFSFSGSYWICWVRQAPGKGLEWIGCINGGSLDITYYASWAKGRFTISKASSTTVTLQKTSLTAADTATYFCASDTSYTAYGNFYFNLWGPGTLVTVSS
VL: AQVLTQTASPVSAAVGGTVTINCQSSQSVLNNNWLAWYQQKPGQPPKLLIYDASSLASGVPSRFKGSGSGTQFTLTISDLESDDAATYYCQGEFSCGSADCNAFGGGTEVVVKG
notes: Parent of the rabbit 24D9 scan; chimeric, rabbit variable domains with human constant regions; also called 24D9; chimeric 24D9 RabMAb
Consider B1, for which, in assay [1], the binding result is recorded as “binds”.

B2: MYT7926 (antibody, V domains shown)
VH: B1 VH
VL: B1 VL with Q24H
notes: tested as culture supernatant; also called 24D9 VL Q24H
Turning to B2, in assay [2], the binding result is “binds”.

B3: MYT7889 (antibody, V domains shown)
VH: B1 VH with W34H
VL: B1 VL
notes: rabbit 24D9 VH W34H; chimeric, human constant regions
With B3, the binding result in assay [1] is “binds”.

B4: MYT7900 (antibody, V domains shown)
VH: B1 VH with I59H
VL: B1 VL
notes: rabbit 24D9 VH I59H; chimeric, human constant regions
As to B4, in assay [1], the binding result was “binds”.

B5: MYT7902 (antibody, V domains shown)
VH: B1 VH with Y61H
VL: B1 VL
notes: rabbit 24D9 VH Y61H; chimeric, human constant regions
As for B5, the binding result in assay [1] is recorded as “binds”.

B6: MYT7883 (antibody, V domains shown)
VH: B1 VH with S28H
VL: B1 VL
notes: rabbit 24D9 VH S28H; chimeric, human constant regions
As to B6, the binding result in assay [1] is “binds”.

B7: MYT7930 (antibody, V domains shown)
VH: B1 VH
VL: B1 VL with S28H
notes: tested as culture supernatant; also called 24D9 VL S28H
Take B7: in assay [2], the binding result was “binds”.

B8: MYT7932 (antibody, V domains shown)
VH: B1 VH
VL: B1 VL with L30H
notes: tested as culture supernatant; also called 24D9 VL L30H
B8: the binding result in assay [2] is “no binding (tested: 50 nM LRRC15)”.

B9: MYT7895 (antibody, V domains shown)
VH: B1 VH with G54H
VL: B1 VL
notes: rabbit 24D9 VH G54H; chimeric, human constant regions
With B9, the binding result in assay [1] was “binds”.

B10: MYT7890 (antibody, V domains shown)
VH: B1 VH with I35H
VL: B1 VL
notes: rabbit 24D9 VH I35H; chimeric, human constant regions
On to B10, for which the binding result in assay [1] is recorded as “binds”.

B11: MYT7927 (antibody, V domains shown)
VH: B1 VH
VL: B1 VL with S25H
notes: tested as culture supernatant; also called 24D9 VL S25H
Take B11: the binding result in assay [2] is on record as “binds”.

B12: MYT7892 (antibody, V domains shown)
VH: B1 VH with C36S, C51H
VL: B1 VL
notes: rabbit 24D9 VH C51H; chimeric, human constant regions
For B12, in assay [1], the binding result is reported as “binds”.

B13: MYT7884 (antibody, V domains shown)
VH: B1 VH with F29H
VL: B1 VL
notes: rabbit 24D9 VH F29H; chimeric, human constant regions
B13: the binding result in assay [1] is recorded as “no binding (tested: 50 nM LRRC15)”.

B14: MYT7891 (antibody, V domains shown)
VH: B1 VH with C36H, C51S
VL: B1 VL
notes: rabbit 24D9 VH C36H; chimeric, human constant regions
Consider B14, for which the binding result in assay [1] was “binds”.

B15: MYT7885 (antibody, V domains shown)
VH: B1 VH with S30H
VL: B1 VL
notes: rabbit 24D9 VH S30H; chimeric, human constant regions
As to B15, the binding result in assay [1] is given as “binds”.

B16: MYT7888 (antibody, V domains shown)
VH: B1 VH with Y33H
VL: B1 VL
notes: rabbit 24D9 VH Y33H; chimeric, human constant regions
As to B16, the binding result in assay [1] is reported as “binds”.

B17: MYT7910 (antibody, V domains shown)
VH: B1 VH with A98H
VL: B1 VL
notes: rabbit 24D9 VH A98H; chimeric, human constant regions
For B17, in assay [1], the binding result was “binds”.

B18: MYT7897 (antibody, V domains shown)
VH: B1 VH with S56H
VL: B1 VL
notes: rabbit 24D9 VH S56H; chimeric, human constant regions
Consider B18, for which the binding result in assay [1] is given as “binds”.

B19: MYT7929 (antibody, V domains shown)
VH: B1 VH
VL: B1 VL with Q27H
notes: tested as culture supernatant; also called 24D9 VL Q27H
Turning to B19, in assay [2], the binding result was “binds”.

B20: MYT7909 (antibody, V domains shown)
VH: B1 VH with G68H
VL: B1 VL
notes: rabbit 24D9 VH G68H; chimeric, human constant regions
As to B20, the binding result in assay [1] is given as “binds”.

B21: MYT7887 (antibody, V domains shown)
VH: B1 VH with S32H
VL: B1 VL
notes: rabbit 24D9 VH S32H; chimeric, human constant regions
Consider B21, for which the binding result in assay [1] is reported as “binds”.

B22: MYT7894 (antibody, V domains shown)
VH: B1 VH with N53H
VL: B1 VL
notes: rabbit 24D9 VH N53H; chimeric, human constant regions
With B22, the binding result in assay [1] was “binds”.

B23: MYT7906 (antibody, V domains shown)
VH: B1 VH with W65H
VL: B1 VL
notes: rabbit 24D9 VH W65H; chimeric, human constant regions
Regarding B23, the binding result in assay [1] is recorded as “binds”.

B24: MYT7893 (antibody, V domains shown)
VH: B1 VH with I52H
VL: B1 VL
notes: rabbit 24D9 VH I52H; chimeric, human constant regions
For the molecule B24, the binding result in assay [1] is listed as “binds”.

B25: MYT7904 (antibody, V domains shown)
VH: B1 VH with A63H
VL: B1 VL
notes: rabbit 24D9 VH A63H; chimeric, human constant regions
For B25, in assay [1], the binding result was “binds”.

B26: MYT7908 (antibody, V domains shown)
VH: B1 VH with K67H
VL: B1 VL
notes: rabbit 24D9 VH K67H; chimeric, human constant regions
Regarding B26, the binding result in assay [1] was “binds”.

B27: MYT7901 (antibody, V domains shown)
VH: B1 VH with T60H
VL: B1 VL
notes: rabbit 24D9 VH T60H; chimeric, human constant regions
B27: the binding result in assay [1] is recorded as “binds”.

B28: MYT7911 (antibody, V domains shown)
VH: B1 VH with S99H
VL: B1 VL
notes: rabbit 24D9 VH S99H; chimeric, human constant regions
In the case of B28, in assay [1], the binding result is “no binding (tested: 50 nM LRRC15)”.

B29: MYT7899 (antibody, V domains shown)
VH: B1 VH with D58H
VL: B1 VL
notes: rabbit 24D9 VH D58H; chimeric, human constant regions
On to B29, for which, in assay [1], the binding result was “binds”.

B30: MYT7905 (antibody, V domains shown)
VH: B1 VH with S64H
VL: B1 VL
notes: rabbit 24D9 VH S64H; chimeric, human constant regions
On to B30, for which the binding result in assay [1] is recorded as “binds”.

B31: MYT7907 (antibody, V domains shown)
VH: B1 VH with A66H
VL: B1 VL
notes: rabbit 24D9 VH A66H; chimeric, human constant regions
For B31, the binding result in assay [1] is “binds”.

B32: MYT7928 (antibody, V domains shown)
VH: B1 VH
VL: B1 VL with S26H
notes: tested as culture supernatant; also called 24D9 VL S26H
Take B32: the binding result in assay [2] is on record as “binds”.

B33: MYT7882 (antibody, V domains shown)
VH: B1 VH with F27H
VL: B1 VL
notes: rabbit 24D9 VH F27H; chimeric, human constant regions
For B33, the binding result in assay [1] is “binds”.

B34: MYT7931 (antibody, V domains shown)
VH: B1 VH
VL: B1 VL with V29H
notes: tested as culture supernatant; also called 24D9 VL V29H
With B34, the binding result in assay [2] is listed as “no binding (tested: 50 nM LRRC15)”.

B35: MYT7898 (antibody, V domains shown)
VH: B1 VH with L57H
VL: B1 VL
notes: rabbit 24D9 VH L57H; chimeric, human constant regions
In the case of B35, in assay [1], the binding result is reported as “binds”.

B36: MYT7896 (antibody, V domains shown)
VH: B1 VH with G55H
VL: B1 VL
notes: rabbit 24D9 VH G55H; chimeric, human constant regions
Consider B36, for which the binding result in assay [1] is “binds”.

B37: MYT7903 (antibody, V domains shown)
VH: B1 VH with Y62H
VL: B1 VL
notes: rabbit 24D9 VH Y62H; chimeric, human constant regions
As to B37, in assay [1], the binding result is listed as “binds”.

B38: MYT7881 (antibody, V domains shown)
VH: B1 VH with G26H
VL: B1 VL
notes: rabbit 24D9 VH G26H; chimeric, human constant regions
Turning to B38, in assay [1], the binding result is listed as “binds”.

B39: MYT7886 (antibody, V domains shown)
VH: B1 VH with G31H
VL: B1 VL
notes: rabbit 24D9 VH G31H; chimeric, human constant regions
With B39, in assay [1], the binding result is listed as “binds”.
